Substitutions are numbered along the chain they refer to.

Drawing on patent publication US12084513 (dated 2024), this text covers Kd for twelve molecules.

The labels stand for the following.
T1: human C1s (human)
T1 chain: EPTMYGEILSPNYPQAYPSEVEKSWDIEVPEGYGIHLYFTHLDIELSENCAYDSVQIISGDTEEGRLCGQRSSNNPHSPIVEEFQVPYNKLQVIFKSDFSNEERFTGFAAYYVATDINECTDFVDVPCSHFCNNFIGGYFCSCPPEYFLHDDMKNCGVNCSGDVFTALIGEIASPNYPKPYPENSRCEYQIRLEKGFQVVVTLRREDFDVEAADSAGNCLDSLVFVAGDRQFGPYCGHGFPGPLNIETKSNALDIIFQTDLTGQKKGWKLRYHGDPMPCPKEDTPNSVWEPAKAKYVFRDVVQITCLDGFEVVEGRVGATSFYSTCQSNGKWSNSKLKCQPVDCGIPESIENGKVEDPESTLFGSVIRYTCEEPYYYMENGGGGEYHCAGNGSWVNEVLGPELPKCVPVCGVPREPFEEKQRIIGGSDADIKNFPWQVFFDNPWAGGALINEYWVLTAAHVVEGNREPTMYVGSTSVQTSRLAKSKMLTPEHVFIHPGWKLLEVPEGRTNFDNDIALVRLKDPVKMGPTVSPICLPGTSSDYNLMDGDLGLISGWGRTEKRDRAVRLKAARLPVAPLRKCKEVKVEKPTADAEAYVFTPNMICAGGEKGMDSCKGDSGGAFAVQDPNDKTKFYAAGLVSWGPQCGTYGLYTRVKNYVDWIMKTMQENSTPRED

B1: IPN92H0033/IPN93L0021 (antibody, V domains shown)
VH: EVMLVESGGGLVKPGGSLRLSCAASGFTFSNYAMSWVRQAPGKGLEWVATISSGGSHTYYLDSVKGRFTISRDNSKDTLYLQMNSLRAEDTALYYCARLFTGHAMDYWGQGTLVTVSS
VL: QIVLTQSPATLSLSPGERATLSCTASSSVSSSYLHWYQQKPGKAPKLWIYSTSNLASGVPSRFSGSGSGTDYTLTISSLQPEDFATYYCHQHYRLPPITFGQGTKLEIK
B2: IPN92H0033/IPN93L0024 (antibody, V domains shown)
VH: B1 VH
VL: B1 VL with H92Y, P96H
B3: IPN009VH2/IPN009VK3 (antibody, V domains shown)
VH: B1 VH with H103Y
VL: B1 VL with H92Y
B4: IPN92H0012/IPN009VK3 (antibody, V domains shown)
VH: B1 VH with I51H, H103Y
VL: B1 VL with H92Y
B5: IPN009VH2/IPN93L0031 (antibody, V domains shown)
VH: B1 VH with H103Y
VL: B1 VL with H92Y, Y93H, L95H, P96H
B6: IPN92H0033/IPN93L0031 (antibody, V domains shown)
VH: B1 VH
VL: B1 VL with H92Y, Y93H, L95H, P96H
B7: IPN92H0033/IPN009VK3 (antibody, V domains shown)
VH: B1 VH
VL: B1 VL with H92Y
B8: IPN009VH2/IPN93L0021 (antibody, V domains shown)
VH: B1 VH with H103Y
VL: B1 VL
B9: IPN009VH2/IPN93L0024 (antibody, V domains shown)
VH: B1 VH with H103Y
VL: B1 VL with H92Y, P96H
B10: IPN92H0288/IPN93L0058 (antibody, V domains shown)
VH: B1 VH with Y60E, K65D, G102K
VL: B1 VL with S28E, H92Y, P96H
B11: IPN92H0288/IPN93L0211 (antibody, V domains shown)
VH: B1 VH with Y60E, K65D, G102K
VL: B1 VL with S28E, S31E, H92Y, P96H
B12: IPN92H0307/IPN93L0058 (antibody, V domains shown)
VH: B1 VH with T28E, S30E, Y60E, K65D, G102K
VL: B1 VL with S28E, H92Y, P96H

The target of the first experiment is T1, human C1s. Kind of experiment: SPR pH 7.4 37C.
B1: the dissociation constant Kd was 1.92 nM. That is a single-digit nanomolar value.
On to B2, for which the Kd turned out to be 2.9 nM.

For the next experiment, the target named is T1, human C1s. As to the kind of experiment: SPR pH 7.4 37C. The source holds these as a separate data set.
With B3, binding was characterised by a dissociation constant (Kd) of 1.24 nM. This counts as single-digit nanomolar.
Molecule B4 had a dissociation constant (Kd) of 10.5 nM.

The target of a further experiment is T1, human C1s. As to the kind of experiment: SPR pH 7.4 37C, low response.
B5 came in with a dissociation constant (Kd) of 0.168 nM.
The molecule B6 yielded a Kd of 3.59 nM.

The target of another experiment is T1, human C1s. Kind of experiment: SPR pH 5.8 low Ca 37C.
The molecule B3 returned a dissociation constant (Kd) of 3.37 nM.
In the case of B7, binding was characterised by a dissociation constant (Kd) of 9.57 nM.
On the same count and under the same terms, with B8 the figure was 9.54 nM.
The molecule B9 had a dissociation constant (Kd) of 22.3 nM.

The target of a further experiment is T1, human C1s. Kind of experiment: SPR pH 5.8 37C, low response.
In the case of B5, binding was put at a Kd of 23.9 nM. This lies in the double-digit nanomolar range.
As to B6, the Kd stood at 2.59 nM.

Another experiment concerns the target T1, human C1s. Kind of experiment: SPR pH 5.8 37C.
B1 returned a Kd of 5.01 nM.
With B2, the dissociation constant (Kd) is 8.66 nM. Against the preceding molecule, the Kd is about 1.7-fold higher.

The next experiment concerns the target T1, human C1s. Kind of experiment: SPR pH 7.4 37C. The source holds these as a separate data set.
Turning to B3, the equilibrium dissociation constant (Kd) was 1.19 nM.
The same measure, in the same setting: under B10 stands 0.611 nM; under B11, 1.11 nM.
B7 gave a Kd of 1.01 nM. This Kd and that of the molecule before are within 1.5-fold of each other.
The same measure, in the same setting: under B2 stands 2.51 nM; under B8, 2.92 nM.
In the case of B9, binding was put at a Kd of 3.4 nM.
Turning to B12, binding was characterised by a dissociation constant (Kd) of 1.34 nM. This Kd is about 2.5-fold lower than that of the molecule before.

A further experiment addresses T1, human C1s. As to the kind of experiment: SPR pH 7.4 37C. The source holds these as a separate data set.
Take B10: the dissociation constant Kd is 0.838 nM.
B11: binding was put at a Kd of 1.67 nM.
B12 displayed a Kd of 1.93 nM.

In another experiment the target is T1, human C1s. Kind of experiment: SPR pH 5.8 37C, low response. This is another data set of the same source.
In turn, B11 returned a Kd of 16.5 nM.

In a further experiment the target is T1, human C1s. As to the kind of experiment: SPR pH 5.8 37C. This is another data set of the same source.
Take B3: the Kd was 0.449 nM.
In turn, B10 yielded a Kd of 40.1 nM. Against the preceding molecule, the Kd is about 89-fold higher.
On to B11, for which binding was characterised by a dissociation constant (Kd) of 83.1 nM.
In the case of B7, the Kd was found to be 0.931 nM.
B2 displayed a Kd of 11.9 nM.
The same measure, in the same setting: under B8 stands 4.34 nM; under B9, 4.32 nM.
In turn, B12 had a dissociation constant (Kd) of 38.1 nM. Against the preceding molecule, the Kd is about 8.8-fold higher.

For a further experiment, the target named is T1, human C1s. Kind of experiment: SPR pH 7.4 37C. The source holds these as a separate data set.
In the case of B3, the equilibrium dissociation constant (Kd) came out at 0.824 nM.
Same read-out and setting: with B7 the figure was 0.79 nM; with B8, 2.68 nM.
With B9, the Kd is 2.46 nM. This Kd and that of the molecule before are within 1.5-fold of each other.

A further experiment addresses T1, human C1s. As to the kind of experiment: SPR pH 5.8 low Ca 37C, low response.
B1 gave a Kd of 7.59 nM.
In turn, B2 displayed an equilibrium dissociation constant (Kd) of 5.3 nM.
Still for that read-out and setting: under B5 stands 4960 nM.
For the molecule B6, the equilibrium dissociation constant (Kd) was 13.9 nM.

The target in a further experiment is T1, human C1s. As to the kind of experiment: SPR pH 5.8 37C. This is another data set of the same source.
For B3, binding was put at a Kd of 0.164 nM.
As for B7, the Kd stood at 0.515 nM.
With B8, the affinity, expressed as Kd, was 3.21 nM.
As to B9, the affinity, expressed as Kd, was 3.87 nM.

A further experiment concerns the target T1, human C1s. As to the kind of experiment: SPR pH 5.8 low Ca 37C, low response. This is another data set of the same source.
The molecule B10 showed a Kd of 7.96 nM.
As to B11, the Kd was found to be 10.4 nM.
The molecule B12 gave a dissociation constant Kd of 4.95 nM.

The next experiment addresses T1, human C1s. As to the kind of experiment: SPR pH 5.8 37C. This is another data set of the same source.
On to B10, for which binding was characterised by a dissociation constant (Kd) of 19.5 nM.
Same read-out and setting: under B12 stands 19.5 nM.

One may read the Kd as the concentration at which binding is half-saturated. A higher Kd goes with a looser complex.
